Laboratory results: paper PMC2797393, “Structure of the hDmc1-ssDNA Filament Reveals the Principles of Its Architecture” (PLoS ONE, 2010)

Molecular target: the molecule itself
Experiment: negative-stain electron microscopy with single-particle statistical analysis; hDmc1 10 uM without DNA, 25 mM Tris-acetate pH 7.0, 2 mM ATP, 100 mM NaCl, 1 mM DTT, 2 mM CaCl2, 37 C for 30 min then on ice; eigen images and class averages of ring particles

B1: Human Dmc1 (hDmc1) (natural protein)
chain: MKEDQVVAEEPGFQDEEESLFQDIDLLQKHGINVADIKKLKSVGICTIKGIQMTTRRALCNVKGLSEAKVDKIKEAANKLIEPGFLTAFEYSEKRKMVFHITTGSQEFDKLLGGGIESMAITEAFGEFRTGKTQLSHTLCVTAQLPGAGGYPGGKIIFIDTENTFRPDRLRDIADRFNVDHDAVLDNVLYARAYTSEHQMELLDYVAAKFHEEAGIFKLLIIDSIMALFRVDFSGRGELAERQQKLAQMLSRLQKISEEYNVAVFVTNQMTADPGATMTFQADPKKPIGGHILAHASTTRISLRKGRGELRIAKIYDSPEMPENEATFAITAGGIGDAKE
notes: human Dmc1, a protein of 340 amino acid residues: N-terminal domain 1-81 and core ATPase domain 82-340; Probably the whole 340-residue protein, since both domains (1-81 and 82-340) were docked into the maps; Octameric ring without DNA; helical filament of open length on DNA; also called human meiotic recombinase Dmc1; source: E. coli BLR(DE3), purified (ammonium sulfate precipitation, HisTrap HP, …)
  stoichiometry N: 8
